The record followed here is PMC7234810 (2020).

Assay [1] deals with H. polygyrus Binds Alarmin Receptor and Inhibits (HpBARI), N-terminal tagged (Heligmosomoides polygyrus). Description: SPR. In general terms: In SPR one partner is held on a chip, and binding of the other changes the refractive index at the surface.
The target in assay [2] is HpBARI expressed with C-terminal tags (Heligmosomoides polygyrus). Description: SPR.

B1: Mouse IL-33-TRAP-Fc (a fusion protein of ST2 and IL-1RAcP with an Fc tag) (Fc fusion)
chain: SKSSWGLENEALIVRCPQRGRSTYPVEWYYSDTNESIPTQKRNRIFVSRDRLKFLPARVEDSGIYACVIRSPNLNKTGYLNVTIHKKPPSCNIPDYLMYSTVRGSDKNFKITCPTIDLYNWTAPVQWFKNCKALQEPRFRAHRSYLFIDNVTHDDEGDYTCQFTHAENGTNYIVTATRSFTVEEKGFSMFPVITNPPYNHTMEVEIGKPASIACSACFGKGSHFLADVLWQINKTVVGNFGEARIQEEEGRNESSSNDMDCLTSVLRITGVTEKDLSLEYDCLALNLHGMIRHTIRLRRKQPIDHRSERCDDWGLDTMRQIQVFEDEPARIKCPLFEHFLKYNYSTAHSSGLTLIWYWTRQDRDLEEPINFRLPENRISKEKDVLWFRPTLLNDTGNYTCMLRNTTYCSKVAFPLEVVQKDSCFNSAMRFPVHKMYIEHGIHKITCPNVDGYFPSSVKPSVTWYKGCTEIVDFHNVLPEGMNLSFFIPLVSNNGNYTCVVTYPENGRLFHLTRTVTVKVVGSPKDALPPQIYSPNDRVVYEKEPGEELVIPCKVYFSFIMDSHNEVWWTIDGKKPDDVTVDITINESVSYSSTEDETRTQILSIKKVTPEDLRRNYVCHARNTKGEAEQAAKVKQKVIPPRYTVELACGFGAT
Take B1: the koff (as a rule, the rate constant with which the complex falls apart) is approximately 0.04 s⁻¹ in assay [1] and approximately 0.13 s⁻¹ in assay [2].
